Sequences and labels used below:
B1: Mu2117HK (Fc fusion)
scFv: EVKIEESGGGLVKPGGSLKLSCAASGFTYSSYGMSWVRQTPEKRLEWVASISGGGSYTKYPDSVKGRFTISRDNAKNHLYLQMSSLRSEDTALYYCARDYAGFFDVWGAGTTVTVSSGGGGSGGGGSGGGGSDVVLTQTPLSLPVSLGDQASISCRSSQSLVHSNGNTYLHWYLQKPGQSPKLLIYKVSNRFSGVPDRFSGSGSGTDFTLKISRVEAEDLGVYFCSQSTHVPYTFGGGTKLEIK
notes: scFv-hIgG1 Fc fusion of mAb2117 V regions, VH-(G4S)3-VL; also called chimeric single-chain antibody control; not shown: human IgG1 Fc
B2: Hu2117HK (Fc fusion)
scFv: EVQLVESGGGLVQPGGSLRLSCAASGFTYSSYGMSWVRQAPGKGLEWVASISGGGSYTKYPDSVKGRFTISRDNSKNTLYLQMNSLRAEDTAVYYCARDYAGFFDVWGQGTLVTVSSGGGGSGGGGSGGGGSDIQMTQSPSSLSASVGDRVTITCRSSQSLVHSNGNTYLHWYQQKPGKAPKLLIYKVSNRFSGVPSRFSGSGSGTDFTLTISSLQPEDFATYFCSQSTHVPYTFGQGTKVEIK
notes: Hu2117-H1 + Hu2117-K1; also called hu2117-H1K1; humanized single-chain antibody Hu2117HK; not shown: human IgG1 Fc
B3: Hu2117KH (Fc fusion)
scFv: DIQMTQSPSSLSASVGDRVTITCRSSQSLVHSNGNTYLHWYQQKPGKAPKLLIYKVSNRFSGVPSRFSGSGSGTDFTLTISSLQPEDFATYFCSQSTHVPYTFGQGTKVEIKGGGGSGGGGSGGGGSEVQLVESGGGLVQPGGSLRLSCAASGFTYSSYGMSWVRQAPGKGLEWVASISGGGSYTKYPDSVKGRFTISRDNSKNTLYLQMNSLRAEDTAVYYCARDYAGFFDVWGQGTLVTVSS
notes: not shown: human IgG1 Fc
B4: Mu2117KH (Fc fusion)
scFv: DVVLTQTPLSLPVSLGDQASISCRSSQSLVHSNGNTYLHWYLQKPGQSPKLLIYKVSNRFSGVPDRFSGSGSGTDFTLKISRVEAEDLGVYFCSQSTHVPYTFGGGTKLEIKGGGGSGGGGSGGGGSEVKIEESGGGLVKPGGSLKLSCAASGFTYSSYGMSWVRQTPEKRLEWVASISGGGSYTKYPDSVKGRFTISRDNAKNHLYLQMSSLRSEDTALYYCARDYAGFFDVWGAGTTVTVSS
notes: scFv-hIgG1 Fc fusion of mAb2117 V regions, VL-(G4S)3-VH; also called chimeric single-chain antibody control; not shown: human IgG1 Fc
B5: Hu2117HK-Mu48 (Fc fusion)
scFv: B2 scFv with A101R
notes: scFv-hIgG1 Fc; not shown: human IgG1 Fc
B6: Hu2117HK-Mu50 (Fc fusion)
scFv: B2 scFv with A101V
notes: as for B5
B7: Hu2117HK-Mu49 (Fc fusion)
scFv: B2 scFv with A101S
notes: as for B5
B8: Hu2117HK-Mu47 (Fc fusion, name in Kabat numbering)
scFv: B2 scFv with A101Q
notes: as for B5
B9: Hu2117HK-Mu46 (Fc fusion)
scFv: B2 scFv with A101N
notes: as for B5
B10: Hu2117HK-Mu45 (Fc fusion)
scFv: B2 scFv with A101I
notes: as for B5
B11: Hu2126-H1K1 (antibody, human IgG1, V domains shown)
VH: QVQLQESGPGLVKPSETLSLTCTASGYTFTDYSMHWVRQPPGKGLEWMGWINTETGEPTYADDFKGRFTFSLDTSKNQASLKLSSVTAADTAVYFCVRVGRYDYAMDYWGQGTTVTVSS
VL: DIQMTQSPSSLSASVGDRVTITCKASQDVYTAVAWYQQKPGKAPKLLINSASYRYTGVPSRFSGSGSGTDFTLTISSLQPEDFATYYCQQHYSTPPTFGGGTKVEIK
B12: Hu2126-H2K1 (antibody, human IgG1, V domains shown)
VH: QVQLVQSGSELKKPGASVKVSCKASGYTFTDYSMHWVRQAPGQGLEWMGWINTETGEPTYADDFKGRFVFSLDTSVSTAYLQISSLKAEDTAVYFCVRVGRYDYAMDYWGQGTTVTVSS
VL: B11 VL
B13: Hu2126-H2K1-L71-H72b-Mu13 (antibody, IgG1, V domains shown)
VH: B12 VH with E54G, V69T, F70I, L72R, V76K, F95Y
VL: B11 VL with K24R, S50K, Y53S, Y55P, H91Y
notes: IgG1/Cκ; also called 7172b-Mu13
B14: Hu2126-H2K1-L71-H72b-Mu19 (antibody, IgG1, V domains shown)
VH: B12 VH with E54G, V69T, F70I, L72R, V76K, F95Y
VL: B11 VL with K24R, S50Y, Y53S, Y55P, H91Y
notes: IgG1/Cκ; also called 7172b-Mu19
B15: Hu2126-H2K1-L71-H72b-Mu15 (antibody, IgG1, V domains shown)
VH: B12 VH with E54G, V69T, F70I, L72R, V76K, F95Y
VL: B11 VL with K24R, S50Q, Y53S, Y55P, H91Y
notes: IgG1/Cκ; also called 7172b-Mu15
B16: Hu2126-H2K1-L71-H72b-Mu18 (antibody, IgG1, V domains shown)
VH: B12 VH with E54G, V69T, F70I, L72R, V76K, F95Y
VL: B11 VL with K24R, S50W, Y53S, Y55P, H91Y
notes: IgG1/Cκ; also called 7172b-Mu18
B17: Hu2126-H2K1-L71-H72b-Mu11 (antibody, IgG1, V domains shown)
VH: B12 VH with E54G, V69T, F70I, L72R, V76K, F95Y
VL: B11 VL with K24R, S50D, Y53S, Y55P, H91Y
notes: IgG1/Cκ; also called 7172b-Mu11
B18: Hu2126-H2K1-L71-H72b-Mu14 (antibody, IgG1, V domains shown)
VH: B12 VH with E54G, V69T, F70I, L72R, V76K, F95Y
VL: B11 VL with K24R, S50L, Y53S, Y55P, H91Y
notes: IgG1/Cκ; also called 7172b-Mu14; Hu2126-7172b-Mu14
B19: Hu2126-H2K1-L71-H72b-Mu10 (antibody, IgG1, V domains shown)
VH: B12 VH with E54G, V69T, F70I, L72R, V76K, F95Y
VL: B11 VL with K24R, S50A, Y53S, Y55P, H91Y
notes: IgG1/Cκ; also called 7172b-Mu10
B20: Hu2126-H2K1-L71-H72b-Mu17 (antibody, IgG1, V domains shown)
VH: B12 VH with E54G, V69T, F70I, L72R, V76K, F95Y
VL: B11 VL with K24R, Y53S, Y55P, H91Y
notes: IgG1/Cκ; also called 7172b-Mu17
B21: Hu2126-H2K1-L71-H72b-Mu12 (antibody, IgG1, V domains shown)
VH: B12 VH with E54G, V69T, F70I, L72R, V76K, F95Y
VL: B11 VL with K24R, S50E, Y53S, Y55P, H91Y
notes: IgG1/Cκ; also called 7172b-Mu12
B22: Hu2126-H2K1-L71-H72b-Mu16 (antibody, IgG1, V domains shown)
VH: B12 VH with E54G, V69T, F70I, L72R, V76K, F95Y
VL: B11 VL with K24R, S50R, Y53S, Y55P, H91Y
notes: IgG1/Cκ; also called 7172b-Mu16
B23: Hu2117-HK310 (Fc fusion)
scFv: B2 scFv with S56N, T58A, P61V, S63N, A101V, G166R
notes: as for B5
B24: Hu2117-HK303 (Fc fusion)
scFv: B2 scFv with S56N, T58A, P61V, D62E, A101V, G166R
notes: as for B5
B25: Hu2117-HK309 (Fc fusion)
scFv: B2 scFv with S56N, T58A, P61V, S63K, A101V, G166R
notes: as for B5
B26: Hu2117-HK203 (Fc fusion)
scFv: B2 scFv with S56N, T58A, P61V, A101V, G166R
notes: as for B5
B27: Hu2117-HK304 (Fc fusion)
scFv: B2 scFv with S56N, T58A, P61V, D62P, A101V, G166R
notes: as for B5

Residue numbers refer to the chain shown, from its start. Numbers in names are those of the source.

Usually Kd stands for the concentration at which binding is half-saturated. What is called koff is the first-order rate constant of dissociation. As usually defined, the kon is the second-order rate constant of association. What is called EC50 is the concentration giving half of the maximal effect. A higher EC50 goes with lower potency in that assay.

The target of the first experiment is T1, recombinant human HER2 extracellular domain protein (human, UniProt P04626 23-652).
T1 construct: range 23-652; Range is printed for the immunogen/panning protein; also called ErbB2; recombinant HER2 protein
Description: BLI (ForteBio). (In BLI a coated tip is dipped into the sample, and binding shifts an interference pattern.)
With B1, the Kd came to 76 nM, the koff was 0.00523 s⁻¹ and the kon came to 68800 M⁻¹ s⁻¹.
B2: the Kd came out at 178 nM, the koff stood at 0.00296 s⁻¹ and the kon amounted to 16600 M⁻¹ s⁻¹.
For B3, in that order: 147 nM, 0.00381 s⁻¹ and 25900 M⁻¹ s⁻¹.
For B4, in that order: 77.2 nM, 0.00545 s⁻¹ and 70600 M⁻¹ s⁻¹.

In the next experiment the target is T1, recombinant human HER2 extracellular …. Description: BLI, Protein A capture.
On to B2, for which the Kd is 11.4 nM, the koff came to 0.00105 s⁻¹ and the kon amounted to 91700 M⁻¹ s⁻¹.
As for B5, the Kd is 12.1 nM, the koff is 0.00118 s⁻¹ and the kon is 97900 M⁻¹ s⁻¹.
For B6, in that order: 16 nM, 0.0016 s⁻¹ and 100000 M⁻¹ s⁻¹.
On to B7, for which the Kd is 11.8 nM, the koff turned out to be 0.000761 s⁻¹ and the kon was found to be 64500 M⁻¹ s⁻¹.
For B8 the same measures were 15.3 nM, 0.000828 s⁻¹ and 54300 M⁻¹ s⁻¹.
Take B9: the Kd worked out at 10.3 nM, the koff was 0.000794 s⁻¹ and the kon turned out to be 77400 M⁻¹ s⁻¹.
Turning to B10, the Kd was found to be 12.8 nM, the koff came out at 0.00126 s⁻¹ and the kon turned out to be 98000 M⁻¹ s⁻¹.

The next experiment shares this target. Description: BLI, Protein A capture. The source holds these as a separate data set.
In the case of B11, the Kd worked out at 19.1 nM, the koff is 0.0018 s⁻¹ and the kon was determined as 94500 M⁻¹ s⁻¹.
B12: the Kd is 6.89 nM, the off-rate (koff) worked out at 0.000581 s⁻¹ and the on-rate (kon) worked out at 84300 M⁻¹ s⁻¹.

Another experiment has the same target. The experiment in a line: BLI, Protein A capture. This is another data set of the same source.
Regarding B12, the Kd was 4.71 nM, the koff turned out to be 0.000469 s⁻¹ and the kon is 99600 M⁻¹ s⁻¹.

Another experiment has the same target. Description: BLI, Protein A capture. This is another data set of the same source.
As for B13, the Kd came out at 7.23 nM, the koff was determined as 0.000707 s⁻¹ and the kon came out at 97800 M⁻¹ s⁻¹.
B14: the Kd worked out at 2.9 nM, the koff is 0.000314 s⁻¹ and the kon stood at 108000 M⁻¹ s⁻¹.
Take B15: the Kd was determined as 4.49 nM and the kon was found to be 106000 M⁻¹ s⁻¹.
On to B16, for which the Kd was 7.96 nM and the kon stood at 124000 M⁻¹ s⁻¹.
For B17, the Kd turned out to be 5.35 nM, the koff came to 0.000482 s⁻¹ and the on-rate constant (kon) was 90100 M⁻¹ s⁻¹.
Consider B18, for which the Kd worked out at 0.825 nM, the koff is 8.31e-05 s⁻¹ and the on-rate constant (kon) was found to be 101000 M⁻¹ s⁻¹.
Regarding B19, the Kd came out at 3.38 nM, the koff stood at 0.000356 s⁻¹ and the kon was determined as 105000 M⁻¹ s⁻¹.
Take B20: the Kd was determined as 2.8 nM, the koff stood at 0.000276 s⁻¹ and the kon was 98500 M⁻¹ s⁻¹.
In the case of B21, the Kd worked out at 6.74 nM and the kon is 78300 M⁻¹ s⁻¹.
On to B22, for which the Kd came out at 5.77 nM, the koff came to 0.000578 s⁻¹ and the kon was determined as 100000 M⁻¹ s⁻¹.

Another experiment deals with T2, human HER2 expressed on tumor cells (human, UniProt P04626 23-1255).
T2 construct: whole, on cells; Cell line is named in each row's assay
The experiment in a line: flow cytometry, BT474 cells. On the technique in general: Flow cytometry measures light scatter and fluorescence of single cells or particles in a stream.
Turning to B2, the response was half-maximal at 0.107 µg/mL (EC50).
Take B23: the EC50 stood at 0.103 µg/mL.
Molecule B24 returned an EC50 of 0.101 µg/mL.
B25 registered an EC50 of 0.103 µg/mL.
B26 had a concentration giving a half-maximal response (EC50) of 0.102 µg/mL.
On to B27, for which the EC50 amounted to 0.0922 µg/mL.

In the next experiment the target is T2, human HER2 expressed on tumor cells. The experiment in a line: flow cytometry, RT-112 cells.
Turning to B2, the EC50 worked out at 0.0593 µg/mL.
The molecule B23 yielded an EC50 of 0.157 µg/mL.
B24 came in with an EC50 of 0.129 µg/mL.
Still for that read-out and setting: the figure for B25 is 0.0956 µg/mL; for B26 it is 0.144 µg/mL.
In the case of B27, a half-maximal response (EC50) required 0.0622 µg/mL. Against the preceding molecule, the EC50 is about 2.3-fold lower.

(Values after patent EP4725969A1 (Latticon (Suzhou) Biopharmaceuticals Co., Ltd., dated 2024).)
